Measured values as given in US10921309 (dated 2021).

Columns and labels:
[1] = target: T1, OBn(GGS)2t-FhuA (barnase nanopore sensor) (Bacillus amyloliquefaciens / E. coli); experiment: other, single-molecule nanopore
T1 chain: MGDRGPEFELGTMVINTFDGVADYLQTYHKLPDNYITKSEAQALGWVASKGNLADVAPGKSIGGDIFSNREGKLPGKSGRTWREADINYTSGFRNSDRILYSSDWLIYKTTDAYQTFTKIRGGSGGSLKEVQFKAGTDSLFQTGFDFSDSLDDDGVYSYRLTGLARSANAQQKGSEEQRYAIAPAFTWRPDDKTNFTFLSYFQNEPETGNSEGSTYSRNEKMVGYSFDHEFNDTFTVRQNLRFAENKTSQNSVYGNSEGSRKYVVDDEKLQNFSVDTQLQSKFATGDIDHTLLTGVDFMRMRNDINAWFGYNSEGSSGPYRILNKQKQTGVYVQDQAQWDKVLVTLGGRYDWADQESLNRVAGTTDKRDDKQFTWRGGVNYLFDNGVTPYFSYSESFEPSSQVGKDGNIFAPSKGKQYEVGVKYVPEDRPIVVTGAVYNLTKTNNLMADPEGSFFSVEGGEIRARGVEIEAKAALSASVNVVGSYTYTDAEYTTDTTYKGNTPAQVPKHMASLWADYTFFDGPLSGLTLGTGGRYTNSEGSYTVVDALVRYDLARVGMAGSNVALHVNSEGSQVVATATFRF

[2] = target: T1, OBn(GGS)2t-FhuA (barnase nanopore …); experiment: other, single-molecule nanopore, high Bs concentration
[3] = target: T1, OBn(GGS)2t-FhuA (barnase nanopore …); experiment: other, single-molecule nanopore, 300 mM KCl, pH 8

Kd [1]: 61 nM
Kd [2]: 82 nM
Kd [3]: 64 nM
B1: Barstar (Bs) (protein)
chain: MKKAVINGEQIRSISDLHQTLKKELALPEYYGENLDALWDALTGWVEYPLVLEWRQFEQSKQLTENGAESVLQVFREAKAEGADITIILS
